Data as given in patent US20170158765A1 (Merck Sharp & Dohme, published 2017).

Molecular target: T1, human ILT5 on the surface of peripheral blood cells (PBMC subsets, APCs) (human, UniProt O75022 24-631)
T1 construct: whole, on cells; also called surface ILT5; Immunoglobulin-like transcript 5
Assay: flow cytometry, staining of human PBMCs
Excerpt: Peripheral blood mononuclear cells (PBMCs) from healthy human blood donors were stained with a murine monoclonal antibody (TRX585) comprising a heavy chain variable region comprising the amino acid sequence of SEQ ID NO: 2 or SEQ ID NO: 3, and a light chain variable region comprising the amino acid sequence of SEQ ID NO: 1. Sequencing analysis of the heavy chain variable region was inconclusive as to whether the first amino acid residue was D or E. As the two amino acids are very similar and the first residue is not in a CDR, it is highly likely that VH with D or E at the first position would have very similar if not the same ILT5-binding properties. PBMCs were also stained with antibodies specific for defined hematopoietic cell lineages and analyzed for ILT5 expression by flow cytometry.

T1 sequence (O75022 24-631): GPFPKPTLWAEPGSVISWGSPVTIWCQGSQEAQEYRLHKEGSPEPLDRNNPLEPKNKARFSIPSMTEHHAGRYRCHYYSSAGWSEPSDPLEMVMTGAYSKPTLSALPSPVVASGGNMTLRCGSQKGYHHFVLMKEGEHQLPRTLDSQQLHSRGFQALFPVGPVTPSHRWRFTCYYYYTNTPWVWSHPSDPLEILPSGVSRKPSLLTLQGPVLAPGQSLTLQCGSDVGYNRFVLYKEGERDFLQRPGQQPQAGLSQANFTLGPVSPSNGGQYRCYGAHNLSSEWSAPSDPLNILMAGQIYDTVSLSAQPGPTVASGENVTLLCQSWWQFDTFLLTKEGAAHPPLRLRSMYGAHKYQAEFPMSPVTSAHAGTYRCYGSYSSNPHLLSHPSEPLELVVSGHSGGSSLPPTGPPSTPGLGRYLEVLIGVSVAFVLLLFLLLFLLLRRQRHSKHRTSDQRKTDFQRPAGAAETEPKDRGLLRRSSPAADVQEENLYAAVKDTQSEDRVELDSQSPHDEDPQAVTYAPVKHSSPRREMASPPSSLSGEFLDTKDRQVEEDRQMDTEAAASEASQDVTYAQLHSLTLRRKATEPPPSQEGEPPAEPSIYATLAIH

binding result: binds
B1: TRX585 mouse anti-human ILT5 monoclonal antibody (8G6 mAb, IgG1, kappa) (antibody, V domains shown)
VH: DVQLQESGPGLVKPSQSLFLTCSVTGYSISSSYYWNWIRQFPGNKLEWMGYISFDGSNNYNPSLKNRISITRDTSKNQFFLKLNSVTTEDTATYYCAREKENYYGSSFYYFDYWGLGTSLTVSS
VL: DIQMTQSPASLSVSVGETVTITCRASENIYSNLAWYQQKQGKSPQVLVYAATNLADGVPSRFSGSGSGTQFSLKINSLQSEDFGNYFCQHFWRIPWTFGGGTKLEIK
notes: Murine IgG1, kappa purified from hybridoma supernatant; also called TRX585 antibody; TRX585 mAb
